The experiment addresses FtsZ-Alexa488 (Cys-FtsZ labeled with Alexa488-maleimide). Nature of the experiment: TIRF microscopy, single particle tracking.

Consider “FtsZ-Cy5 (Cys-FtsZ labeled with Cy5-maleimide) (natural protein)”, for which the average lifetime of FtsZ monomers in the filament network worked out at 7.16 s.
